Consider one molecule from paper PMC6238616.

This experiment has as its target SMN1, wild type, LUMIER fusion, Q16637. As to the kind of experiment: LUMIER. Conditions: chain shown with the change;; parent: est. 51000; read off a plot.

Chain of SMN1, wild type, LUMIER fusion, Q16637 (Q16637 whole entry, the tested form may be a part): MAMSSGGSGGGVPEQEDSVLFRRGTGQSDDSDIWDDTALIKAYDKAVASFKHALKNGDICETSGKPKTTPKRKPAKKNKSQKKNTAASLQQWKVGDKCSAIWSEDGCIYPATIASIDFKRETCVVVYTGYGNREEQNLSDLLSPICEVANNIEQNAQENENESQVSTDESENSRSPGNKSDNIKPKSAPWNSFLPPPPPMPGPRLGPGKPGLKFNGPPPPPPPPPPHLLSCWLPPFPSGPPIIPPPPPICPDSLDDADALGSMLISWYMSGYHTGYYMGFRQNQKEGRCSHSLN

B1: PHF1, wild type, LUMIER fusion, O43189 Y47A (protein)
chain: MAQPPRLSRSGASSLWDPASPAPTSGPRPRLWEGQDVLARWTDGLLALGTIKKVDSAREVCLVQFEDDSQFLVLWKDISPAALPGEELLCCVCRSETVVPGNRLVSCEKCRHAYHQDCHVPRAPAPGEGEGTSWVCRQCVFAIATKRGGALKKGPYARAMLGMKLSLPYGLKGLDWDAGHLSNRQQSYCYCGGPGEWNLKMLQCRSCLQWFHEACTQCLSKPLLYGDRFYEFECCVCRGGPEKVRRLQLRWVDVAHLVLYHLSVCCKKKYFDFDREILPFTSENWDSLLLGELSDTPKGERSSRLLSALNSHKDRFISGREIKKRKCLFGLHARMPPPVEPPTGDGALTSFPSGQGPGGGVSRPLGKRRRPEPEPLRRRQKGKVEELGPPSAVRNQPEPQEQRERAHLQRALQASVSPPSPSPNQSYQGSSGYNFRPTDARCLPSSPIRMFASFHPSASTAGTSGDSGPPDRSPLELHIGFPTDIPKSAPHSMTASSSSVSSPSPGLPRRSAPPSPLCRSLSPGTGGGVRGGVGYLSRGDPVRVLARRVRPDGSVQYLVEWGGGGIF
In the case of B1, the response is 28000 RU.
